{"source": "paper PMC4442680", "about": "“Crystal structure of human nicotinic acid phosphoribosyltransferase” (FEBS Open Bio, 2015)", "proteins": {"B1": {"name": "human nicotinic acid phosphoribosyltransferase (enzyme, UniProt Q6XQN6 1-538, looked up)", "chain": "MAAEQDPEARAAARPLLTDLYQATMALGYWRAGRARDAAEFELFFRRCPFGGAFALAAGLRDCVRFLRAFRLRDADVQFLASVLPPDTDPAFFEHLRALDCSEVTVRALPEGSLAFPGVPLLQVSGPLLVVQLLETPLLCLVSYASLVATNAARLRLIAGPEKRLLEMGLRRAQGPDGGLTASTYSYLGGFDSSSNVLAGQLRGVPVAGTLAHSFVTSFSGSEVPPDPMLAPAAGEGPGVDLAAKAQVWLEQVCAHLGLGVQEPHPGERAAFVAYALAFPRAFQGLLDTYSVWRSGLPNFLAVALALGELGYRAVGVRLDSGDLLQQAQEIRKVFRAAAAQFQVPWLESVLIVVSNNIDEEALARLAQEGSEVNVIGIGTSVVTCPQQPSLGGVYKLVAVGGQPRMKLTEDPEKQTLPGSKAAFRLLGSDGSPLMDMLQLAEEPVPQAGQELRVWPPGAQEPCTVRPAQVEPLLRLCLQQGQLCEPLPSLAESRALAQLSLSRLSPEHRRLRSPAQYQVVLSERLQALVNSLCAGQSP", "notes": "human nicotinic acid phosphoribosyltransferase (EC 2.4.2.11); also called human NaPRTase; hNaPRTase"}}, "target": "the molecule itself", "assay": "crystal structure; ligand-free enzyme; sitting drops, 15 mg/mL protein preincubated with 1 mM Acetyl-CoA and 5 mM DTT, 0.1 M Sodium cacodylate pH 6.5, 1.7 M Sodium acetate, 4 °C; P212121, two molecules per asymmetric unit; 2.9 Å", "data": [{"protein": "B1", "values": [{"measurement": "stoichiometry N", "result": 2}]}]}
